The target of assay [1] is human IL-1R1, endogenous on human cells (HeLa cells; whole blood) (human) (UniProt P14778). In words: cell-based or functional assay.
Assay [2] has as its target Human sIL-1R1 (R&D Systems), un-tagged (human) (UniProt P14778). In words: KinExA, IgG equilibrated in solution with un-tagged sIL-1R1; free IgG captured on IL-1R1 beads. In general terms: In KinExA the mixture passes briefly over coated beads that capture the unbound partner.

Results on one substance are retold here after US20100221257A1.

By Kd is commonly meant the concentration at which binding is half-saturated. High values mean weaker binding, low ones tighter binding.

human IL-1R1, endogenous on human cells (HeLa cells; whole blood) (human), sequence (P14778 18-569): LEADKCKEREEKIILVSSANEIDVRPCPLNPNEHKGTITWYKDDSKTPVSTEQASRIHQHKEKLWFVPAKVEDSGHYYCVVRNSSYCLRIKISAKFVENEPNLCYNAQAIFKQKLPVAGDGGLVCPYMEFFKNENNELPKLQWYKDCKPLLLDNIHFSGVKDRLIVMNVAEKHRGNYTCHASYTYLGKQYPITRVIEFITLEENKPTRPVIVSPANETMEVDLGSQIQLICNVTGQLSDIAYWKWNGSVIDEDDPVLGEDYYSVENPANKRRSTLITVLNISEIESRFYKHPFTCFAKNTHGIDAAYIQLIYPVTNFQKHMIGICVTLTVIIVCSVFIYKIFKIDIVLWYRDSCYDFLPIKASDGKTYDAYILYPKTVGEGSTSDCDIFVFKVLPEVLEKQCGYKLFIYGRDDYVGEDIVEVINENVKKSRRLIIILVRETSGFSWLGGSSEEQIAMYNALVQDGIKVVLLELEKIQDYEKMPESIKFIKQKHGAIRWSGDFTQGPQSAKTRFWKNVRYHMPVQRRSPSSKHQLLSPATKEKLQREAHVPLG
Human sIL-1R1 (R&D Systems), un-tagged (human), sequence (P14778 18-332 limits assumed): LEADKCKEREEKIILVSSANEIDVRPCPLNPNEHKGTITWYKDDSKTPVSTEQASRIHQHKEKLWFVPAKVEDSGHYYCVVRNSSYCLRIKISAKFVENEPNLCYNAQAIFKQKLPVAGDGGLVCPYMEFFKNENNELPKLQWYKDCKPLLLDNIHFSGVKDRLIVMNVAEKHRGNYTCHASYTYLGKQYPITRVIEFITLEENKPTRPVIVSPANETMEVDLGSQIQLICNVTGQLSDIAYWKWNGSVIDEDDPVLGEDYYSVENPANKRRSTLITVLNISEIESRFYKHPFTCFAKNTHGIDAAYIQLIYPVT

In assay [1], AMG108 IgG2 (antibody) gave an IC50, inhibition of IL-1 alpha induced IL-8 release in HeLa cells (N = 3) of 11.7 pM; an IC50, inhibition of IL-1 beta induced IL-8 release in HeLa cells (run with the GL IgG2 set, N = 5-6) of 5.9 pM; an IC50, inhibition of IL-1 beta induced IL-8 release in HeLa cells (run with the IgG1 set, N = 6-7) of 5.3 pM; an IC50, inhibition of human IL-1β induced IL-8 release from HeLa cells of 9 pM. This substance also gave a Kd in assay [2] of 4.12 pM.
